Reference: US7232659

How the values were obtained:
[1] = biological target: FPR-GFP fusion protein (human; Aequorea victoria), P21462; experiment: Kd from competition on wild type FPR divided by EC50 of LRG assembly with FPR-GFP
[2] = biological target: T1, formyl peptide receptor (FPR), wild type, detergent-solubilized (human), P21462; experiment: spectrofluorimetric competition with L^F for solubilized FPR, IC50 converted to Kd
T1 chain: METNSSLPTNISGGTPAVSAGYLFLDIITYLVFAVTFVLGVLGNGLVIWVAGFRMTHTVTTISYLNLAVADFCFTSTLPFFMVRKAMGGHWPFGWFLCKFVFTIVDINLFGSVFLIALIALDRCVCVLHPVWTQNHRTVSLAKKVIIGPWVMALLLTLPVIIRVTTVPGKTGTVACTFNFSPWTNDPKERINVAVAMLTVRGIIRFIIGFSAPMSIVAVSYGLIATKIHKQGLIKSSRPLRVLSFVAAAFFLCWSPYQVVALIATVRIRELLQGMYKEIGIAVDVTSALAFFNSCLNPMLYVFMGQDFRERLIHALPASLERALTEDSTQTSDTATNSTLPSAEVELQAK

[3] = biological target: FPR-GFP fusion protein (human; Aequorea victoria), P21462; experiment: flow cytometry, LRG assembly of 30 nM FPR-GFP on αβγ DCNi beads, ligand varied (FIG. 13B)

Work on MLFF (modifications not checked) [fMLFF] yielded a ratio of Kd (for LR) to EC50 (for LRG formation) [1] of 2.8, a Kd [2] of 75 nM and an EC50 [3] of 27 nM.
